This series concerns the molecule itself. The experiment in a line: transmission electron microscopy.

B1: plant-derived Norwalk virus capsid protein (NVCP), assembled as virus-like particles (VLP) (natural protein)
chain: MMMASKDATSSVDGASGAGQLVPEVNASDPLAMDPVAGSSTAVATAGQVNPIDPWIINNFVQAPQGEFTISPNNTPGDVLFDLSLGPHLNPFLLHLSQMYNGWVGNMRVRIMLAGNAFTAGKIIVSCIPPGFGSHNLTIAQATLFPHVIADVRTLDPIEVPLEDVRNVLFHNNDRNQQTMRLVCMLYTPLRTGGGTGDSFVVAGRVMTCPSPDFNFLFLVPPTVEQKTRPFTLPNLPLSSLSNSRAPLPISSMGISPDNVQSVQFQNGRCTLDGRLVGTTPVSLSHVAKIRGTSNGTVINLTELDGTPFHPFEGPAPIGFPDLGGCDWHINMTQFGHSSQTQYDVDTTPDTFVPHLGSIQANGIGSGNYVGVLSWISPPSHPSGSQVDLWKIPNYGSSITEATHLAPSVYPPGFGEVLVFFMSKMPGPGAYNLPCLLPQEYISHLASEQAPTVGEAALLHYVDPDTGRNLGEFKAYPDGFLTCVPNGASSGPQQLPINGVFVFVSWVSRFYQLKPVGTASSARGRLGLRR
On to B1, for which the binding result is “binds”.
